Strand notation (5' to 3'): a small letter for the sugar, then the base; units joined by * are phosphorothioate-linked, units joined directly phosphodiester-linked; [ ] holds rarer units or linkages, { } end groups; capitals alone tell only the bases. {ppp} = triphosphate; r = 2'-OH (RNA); f = 2'-fluoro
Experiments:
[1] = test system: IL-8; assay: IL-8 ELISA of transfected melanoma cell supernatants; format: cell-based, human; settings: 0.5 μg/ml, 24 h
Procedure: For the intracellular delivery of immune stimulatory RNAs, RNAs were transfected with the DharmaFECT® Duo liposomal transfection reagent (Thermo Scientific, Waltham, Mass.) at a transfection reagent (μl):RNA (μg) ratio of 3.75:1, according to the manufacturer's instructions. Unless otherwise stated, for the induction of innate immune responses and apoptosis, immune stimulatory RNAs (500 ng/ml) were transfected into 50 to 70% confluent cells. Cells were incubated with an RNA-transfection agent complex for 5 h, followed by replenishment with fresh culture medium. To electroporate cells, 1×10^5 cells suspended in 200 μl Opti-MEM I (Invitrogen) were mixed with 1 μg of immune stimulatory RNAs or 5 μg of 2'Fluoro pyrimidine ribonucleoside triphosphate in 2-mm cuvettes and were electroporated at 300 V for 500 μs using an Electro Square Porator ECM 830 (BTX, San Diego, Calif.). For the knockdown of RNA-sensing PRRs, cells were transfected with PRR-specific siRNAs (25 nM) twice at 2-day intervals using DharmaFECT®-1 (Thermo Scientific). At 5 h after the second siRNA transfection, cells were harvested, replated into a 96-well plate and incubated overnight. […] The production of human IL-8 was analyzed with a human IL-8 ELISA kit (eBioscience). IFN-β production was determined with a human IFN-β ELISA kit (PBL Biomedical Laboratories, Piscataway, N.J.) by following the manufacturer's instructions.

[2] = test system: WM266-4 cells; assay: Apoptosis / cell death by Annexin V-PE and 7-AAD flow cytometry; format: cell-based, human; settings: aptamer treated with bacterial alkaline phosphatase (BAP), 0.125 μg/ml
Procedure: For the intracellular delivery of immune stimulatory RNAs, RNAs were transfected with the DharmaFECT® Duo liposomal transfection reagent (Thermo Scientific, Waltham, Mass.) at a transfection reagent (μl):RNA (μg) ratio of 3.75:1, according to the manufacturer's instructions. Unless otherwise stated, for the induction of innate immune responses and apoptosis, immune stimulatory RNAs (500 ng/ml) were transfected into 50 to 70% confluent cells. Cells were incubated with an RNA-transfection agent complex for 5 h, followed by replenishment with fresh culture medium. […]
Growth inhibition relative to untreated cells was quantified at 72 h after RNA transfection using an MTT Cell Proliferation Assay Kit (Cayman Chemicals, Ann Arbor, Mich.), according to the manufacturer's instructions. The percent growth inhibition was calculated by using the following equation: % growth inhibition=([O.D.]untreated−[O.D.]treated)/[O.D.]untreated×100. The induction of cell death was measured 48 h after RNA transfection by flow cytometry after staining with Annexin V-PE and 7-Aminoactinomycin D (7-AAD) using the PE Annexin V Apoptosis Detection Kit I (BD Biosciences, San Jose, Calif.) and analyzed using the CellQuest software (BD Biosciences).

B1: 10F: 5′ppp 2′F pyrimidine ssRNA aptamer, 71 nt, human melanocytic cell-targeting, SEQ ID NO: 4 (nucleic acid)
chain: {ppp}-rGrGrGrArGrGrAfCrGrAfUrGfCrGrGfUrAfCfCfUrGrAfCrArGfCrAfUfCfUfUrGrAfUrArAfUrGrGfUfCfCfUrAfCrGrGrArGfCfCrGfUfUfCfCrArGrAfCrGrAfCfUfCrGfCfCfCrGrA
[1]
  IL-8 production, fold compared to unmodified 5′ppp RNAs: over 2 fold
  IL-8 production, in words: strong induction
[2]
  apoptosis after dephosphorylation of the aptamer: partially prevented
